From patent US20050226876A1 (Hoffmann-La Roche, published 2005)

Tests used:
[1] = molecular target: T1, human complement factor C1q (human, UniProt P02745 23-245; P02746 28-253; P02747 29-245); test: C1q ELISA, antibody coated; background OD405 0.079
T1 construct: also called Clq
Description: (§1) In principle, the ELISA plate is coated with concentration ranges of the antibody, to which human C1q or human pooled serum, as a source of C3, is added. C1q or […] binding is detected by an antibody directed against human C1q or […] followed by a peroxidase-labeled conjugate.

[2] = molecular target: T2, Fcγ receptor on human NK cells (FcγRIII) (human, UniProt P08637 17-254); test: FACS on NK cells from human blood
T2 construct: whole, on cells; also called FcγR presented on NK cells
T2 sequence (P08637 17-254): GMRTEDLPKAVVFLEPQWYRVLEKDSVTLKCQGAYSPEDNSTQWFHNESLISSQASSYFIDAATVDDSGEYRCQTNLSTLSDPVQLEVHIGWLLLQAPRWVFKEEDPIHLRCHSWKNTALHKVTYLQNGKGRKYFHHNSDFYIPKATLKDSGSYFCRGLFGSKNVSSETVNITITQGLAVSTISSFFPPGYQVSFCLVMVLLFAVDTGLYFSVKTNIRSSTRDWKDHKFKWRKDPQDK

[3] = molecular target: T3, human complement factor C3 (from human pooled serum) (human, UniProt P01024 23-1663, limits assumed); test: C3 ELISA, antibody coated, human pooled serum; background OD405 0.098
T3 construct: The ELISA detects C3 (C3c) deposited on the coated antibody out of serum; also called C3c
T3 sequence (P01024 23-1663 limits assumed): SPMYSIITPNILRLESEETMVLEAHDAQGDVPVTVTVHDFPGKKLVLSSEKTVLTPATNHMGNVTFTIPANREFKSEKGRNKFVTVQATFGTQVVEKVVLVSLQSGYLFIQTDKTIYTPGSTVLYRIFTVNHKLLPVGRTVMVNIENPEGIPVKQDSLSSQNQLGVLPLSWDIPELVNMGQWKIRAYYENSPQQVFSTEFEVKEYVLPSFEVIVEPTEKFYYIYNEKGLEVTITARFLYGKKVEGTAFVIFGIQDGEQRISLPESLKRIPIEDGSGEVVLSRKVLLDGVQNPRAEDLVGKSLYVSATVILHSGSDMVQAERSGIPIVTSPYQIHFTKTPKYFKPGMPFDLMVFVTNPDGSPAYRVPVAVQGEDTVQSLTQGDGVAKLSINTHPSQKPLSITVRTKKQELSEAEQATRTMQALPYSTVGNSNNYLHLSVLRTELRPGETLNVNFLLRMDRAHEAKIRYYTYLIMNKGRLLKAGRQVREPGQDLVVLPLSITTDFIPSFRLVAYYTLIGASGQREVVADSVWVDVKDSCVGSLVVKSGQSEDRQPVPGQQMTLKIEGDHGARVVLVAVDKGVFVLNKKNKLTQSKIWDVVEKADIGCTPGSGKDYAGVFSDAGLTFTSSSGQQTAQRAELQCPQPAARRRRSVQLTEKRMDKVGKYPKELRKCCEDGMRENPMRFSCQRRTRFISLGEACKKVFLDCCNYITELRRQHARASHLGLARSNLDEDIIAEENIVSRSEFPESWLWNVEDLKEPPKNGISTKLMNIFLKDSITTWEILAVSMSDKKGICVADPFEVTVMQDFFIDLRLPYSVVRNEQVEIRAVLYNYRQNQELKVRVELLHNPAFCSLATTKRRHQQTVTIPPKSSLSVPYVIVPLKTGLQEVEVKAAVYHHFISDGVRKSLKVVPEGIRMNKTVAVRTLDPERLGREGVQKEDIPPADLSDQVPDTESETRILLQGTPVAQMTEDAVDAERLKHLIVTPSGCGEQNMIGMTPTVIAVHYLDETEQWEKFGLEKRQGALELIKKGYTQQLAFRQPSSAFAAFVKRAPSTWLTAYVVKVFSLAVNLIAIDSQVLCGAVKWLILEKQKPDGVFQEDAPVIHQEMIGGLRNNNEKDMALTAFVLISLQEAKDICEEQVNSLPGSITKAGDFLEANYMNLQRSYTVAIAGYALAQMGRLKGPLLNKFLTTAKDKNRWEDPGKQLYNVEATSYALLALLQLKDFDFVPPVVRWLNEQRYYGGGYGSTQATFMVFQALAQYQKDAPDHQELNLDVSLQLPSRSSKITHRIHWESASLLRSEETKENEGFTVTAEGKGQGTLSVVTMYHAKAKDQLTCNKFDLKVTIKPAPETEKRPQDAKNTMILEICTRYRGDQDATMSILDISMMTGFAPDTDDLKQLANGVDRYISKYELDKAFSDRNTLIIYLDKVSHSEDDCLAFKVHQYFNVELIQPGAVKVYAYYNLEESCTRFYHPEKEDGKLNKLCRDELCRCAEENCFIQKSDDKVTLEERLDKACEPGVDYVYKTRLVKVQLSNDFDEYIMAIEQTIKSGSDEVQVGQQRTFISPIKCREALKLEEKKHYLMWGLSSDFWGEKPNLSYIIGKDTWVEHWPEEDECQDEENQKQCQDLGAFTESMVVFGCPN
Description: as §1

[4] = molecular target: T4, E-selectin on E-selectin-CHO transfectants (UniProt P16581 22-610, limits assumed); test: cell-based ELISA on E-selectin-CHO transfectants, OD405
T4 construct: whole, on cells; also called E-selectin-CHO cells; E-selectin transfectants
T4 sequence (looked up): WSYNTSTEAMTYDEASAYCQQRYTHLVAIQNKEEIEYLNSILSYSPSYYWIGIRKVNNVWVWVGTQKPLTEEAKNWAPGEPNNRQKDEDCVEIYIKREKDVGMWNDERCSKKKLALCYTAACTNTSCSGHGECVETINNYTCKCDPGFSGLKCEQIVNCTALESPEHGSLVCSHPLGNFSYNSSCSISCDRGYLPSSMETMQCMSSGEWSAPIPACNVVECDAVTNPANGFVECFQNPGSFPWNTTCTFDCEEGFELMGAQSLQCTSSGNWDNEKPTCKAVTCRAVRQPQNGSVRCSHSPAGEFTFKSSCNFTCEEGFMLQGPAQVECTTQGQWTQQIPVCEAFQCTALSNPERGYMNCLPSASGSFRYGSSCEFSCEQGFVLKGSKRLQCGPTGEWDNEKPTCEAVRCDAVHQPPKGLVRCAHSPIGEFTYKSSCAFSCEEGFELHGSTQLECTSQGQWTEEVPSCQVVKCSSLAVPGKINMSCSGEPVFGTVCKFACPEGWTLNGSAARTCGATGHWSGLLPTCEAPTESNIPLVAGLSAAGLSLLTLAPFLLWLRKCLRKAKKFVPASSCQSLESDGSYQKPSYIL
Description: In the cell-based ELISA P— and E-selectin-CHO-transfectants, after detaching the cells with cell-dissociation solution (Sigma C5914), were seeded into each well of 96 well plates (TC Microwell F96 Nunc 167008) adjusted to 100,000 cells/well and cultivated in respective media overnight at 37° C. (medium for P— CHO-transfectants: DMEM+10% FCS+2 mM Glutamine+Penicillin 100 U/ml/Streptomycin 100 μg/ml; medium for E-selctin transfecttants: HAM F-12+10% FCS+2 mM Glutamine+Penicillin 100 U/ml/Streptomycin 100 μg/ml+0.1% Fungizone+100 μg/ml Neomycin). […] After washing the wells (4 times), the bound antibodies were detected using the same steps as mentioned above for the cell-free ELISA.

[5] = molecular target: T5, rat P-selectin (on thrombin-activated rat platelets) (rat, UniProt P98106 42-768); test: rosetting assay: adhesion of thrombin-activated rat platelets to HL60 cells, FACS; absence of inhibition, shown as lack of cross-reactivity with rat P-selectin
T5 construct: whole, on cells
T5 sequence (looked up): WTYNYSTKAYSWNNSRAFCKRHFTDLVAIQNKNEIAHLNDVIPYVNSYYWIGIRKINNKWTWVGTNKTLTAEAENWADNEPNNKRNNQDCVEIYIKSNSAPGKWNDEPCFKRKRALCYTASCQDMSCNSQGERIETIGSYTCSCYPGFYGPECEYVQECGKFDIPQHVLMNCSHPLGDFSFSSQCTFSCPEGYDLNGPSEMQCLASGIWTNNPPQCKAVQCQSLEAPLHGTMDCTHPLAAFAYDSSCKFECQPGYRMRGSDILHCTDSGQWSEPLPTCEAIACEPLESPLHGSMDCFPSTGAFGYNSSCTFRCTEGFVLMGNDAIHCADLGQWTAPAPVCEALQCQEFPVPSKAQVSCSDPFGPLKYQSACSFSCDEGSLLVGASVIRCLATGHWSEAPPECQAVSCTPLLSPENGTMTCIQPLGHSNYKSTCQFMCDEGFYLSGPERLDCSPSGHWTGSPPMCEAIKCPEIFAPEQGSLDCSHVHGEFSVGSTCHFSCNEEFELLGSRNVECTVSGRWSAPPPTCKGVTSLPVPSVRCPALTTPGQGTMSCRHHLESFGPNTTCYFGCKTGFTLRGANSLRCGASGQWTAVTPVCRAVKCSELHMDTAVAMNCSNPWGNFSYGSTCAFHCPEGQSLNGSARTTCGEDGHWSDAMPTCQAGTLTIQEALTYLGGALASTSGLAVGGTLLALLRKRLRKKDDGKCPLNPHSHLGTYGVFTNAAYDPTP

[6] = molecular target: T1, human complement factor C1q; test: C1q ELISA, antibody coated 0.16-20 µg/ml
Description: as §1

T1 sequence (P02745 23-245 limits assumed, chain 1 of 3): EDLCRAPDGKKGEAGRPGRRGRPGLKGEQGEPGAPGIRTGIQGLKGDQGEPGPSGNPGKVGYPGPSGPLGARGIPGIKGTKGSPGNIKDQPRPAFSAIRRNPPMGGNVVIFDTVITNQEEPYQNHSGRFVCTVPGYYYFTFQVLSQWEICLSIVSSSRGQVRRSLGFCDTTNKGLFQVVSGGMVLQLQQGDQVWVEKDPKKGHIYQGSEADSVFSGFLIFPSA
T1 sequence (P02746 28-253 limits assumed, chain 2 of 3): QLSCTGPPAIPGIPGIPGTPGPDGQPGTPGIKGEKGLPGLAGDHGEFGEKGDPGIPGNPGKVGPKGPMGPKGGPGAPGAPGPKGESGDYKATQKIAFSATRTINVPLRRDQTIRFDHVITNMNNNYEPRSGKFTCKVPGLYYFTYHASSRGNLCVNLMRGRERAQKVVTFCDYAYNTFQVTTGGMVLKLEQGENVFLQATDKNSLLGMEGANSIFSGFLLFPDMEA
T1 sequence (P02747 29-245 limits assumed, chain 3 of 3): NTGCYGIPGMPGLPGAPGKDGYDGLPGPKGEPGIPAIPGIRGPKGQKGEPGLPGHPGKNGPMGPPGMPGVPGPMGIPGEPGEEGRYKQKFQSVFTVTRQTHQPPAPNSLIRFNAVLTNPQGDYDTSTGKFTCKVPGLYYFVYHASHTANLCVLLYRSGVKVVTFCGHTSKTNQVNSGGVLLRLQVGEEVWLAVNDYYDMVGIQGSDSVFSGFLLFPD

- Bmax (OD405 at 10 µg/ml) [1]: 0.0119 OD405
- binding result [2]: no binding (tested: 10 µg/ml)
- Bmax (OD405 at 10 µg/ml) [3]: 0.156 OD405
- binding result [4]: no binding (tested: 100 µg/ml)
- binding result [5]: no binding (tested: 100 µg/ml)
- binding result [6]: no binding
B1: HuMab 002 Fc variant IgG1v1 (PVA-236; GLPSS331: E233P; L234V; L235A; delta G236; A327G; A330S; P331S) (antibody)
heavy: EVQLVESGGGLVRPGGSLRLSCAASGFTFSNYDMHWVRQATGKGLEWVSAITAAGDIYYPGSVKGRFTISRENAKNSLYLQMNSLRAGDTAVYYCARGRYSGSGSYYNDWFDPWGQGTLVTVSSASTKGPSVFPLAPSSKSTSGGTAALGCLVKDYFPEPVTVSWNSGALTSGVHTFPAVLQSSGLYSLSSVVTVPSSSLGTQTYICNVNHKPSNTKVDKKVEPKSCDKTHTCPPCPAPPVAGPSVFLFPPKPKDTLMISRTPEVTCVVVDVSHEDPEVKFNWYVDGVEVHNAKTKPREEQYNSTYRVVSVLTVLHQDWLNGKEYKCKVSNKGLPSSIEKTISKAKGQPREPQVYTLPPSRDELTKNQVSLTCLVKGFYPSDIAVEWESNGQPENNYKTTPPVLDSDGSFFLYSKLTVDKSRWQQGNVFSCSVMHEALHNHYTQKSLSLSPGK
light: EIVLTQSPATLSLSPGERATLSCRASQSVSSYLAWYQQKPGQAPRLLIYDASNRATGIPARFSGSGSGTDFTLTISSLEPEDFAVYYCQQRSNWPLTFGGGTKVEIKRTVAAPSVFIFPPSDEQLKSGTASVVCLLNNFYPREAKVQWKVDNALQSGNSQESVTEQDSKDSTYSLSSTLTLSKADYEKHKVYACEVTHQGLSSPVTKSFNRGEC
notes: copies: 2 + 2
